PMC8027542
pKd: −log10 of the molar value.

How the values were obtained:
TLR2 = TLR2 (UniProt O60603); test: SPR; TLR2 or CD14 (ligands) immobilised on a CM5 chip; different SIC concentrations as analyte; 1:1 Langmuir fit
CD14 = CD14 (UniProt P08571); test: as above
Sequence of UniProt P08571 (P08571 20-345): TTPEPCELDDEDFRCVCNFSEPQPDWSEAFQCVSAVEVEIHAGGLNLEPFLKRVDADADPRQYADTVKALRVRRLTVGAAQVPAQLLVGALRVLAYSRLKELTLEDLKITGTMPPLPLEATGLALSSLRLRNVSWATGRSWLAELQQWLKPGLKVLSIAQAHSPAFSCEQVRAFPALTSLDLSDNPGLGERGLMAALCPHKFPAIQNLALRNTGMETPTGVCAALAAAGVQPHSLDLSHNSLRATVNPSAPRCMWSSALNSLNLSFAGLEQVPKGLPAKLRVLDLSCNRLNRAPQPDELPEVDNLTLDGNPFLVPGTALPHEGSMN

Sequence of UniProt O60603 (O60603 21-784): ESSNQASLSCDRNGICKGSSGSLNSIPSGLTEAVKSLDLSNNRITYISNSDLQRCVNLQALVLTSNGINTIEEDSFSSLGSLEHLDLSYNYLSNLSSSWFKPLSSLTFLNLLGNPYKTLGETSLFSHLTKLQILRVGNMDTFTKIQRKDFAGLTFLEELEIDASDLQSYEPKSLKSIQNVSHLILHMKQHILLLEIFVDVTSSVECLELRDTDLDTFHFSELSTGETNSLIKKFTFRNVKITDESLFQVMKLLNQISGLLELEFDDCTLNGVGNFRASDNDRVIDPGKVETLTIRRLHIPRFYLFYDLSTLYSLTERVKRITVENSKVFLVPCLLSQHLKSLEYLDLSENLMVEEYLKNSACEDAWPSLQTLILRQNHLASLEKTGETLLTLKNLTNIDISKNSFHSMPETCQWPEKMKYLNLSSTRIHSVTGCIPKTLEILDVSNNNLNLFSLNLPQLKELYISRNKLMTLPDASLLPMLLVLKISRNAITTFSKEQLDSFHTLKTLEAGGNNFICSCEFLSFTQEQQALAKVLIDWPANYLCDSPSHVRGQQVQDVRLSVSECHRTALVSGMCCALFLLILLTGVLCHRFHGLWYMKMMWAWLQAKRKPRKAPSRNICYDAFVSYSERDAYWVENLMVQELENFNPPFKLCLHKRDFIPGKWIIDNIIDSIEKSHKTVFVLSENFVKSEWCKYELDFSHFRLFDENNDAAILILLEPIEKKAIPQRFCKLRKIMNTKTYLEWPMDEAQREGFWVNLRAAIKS

## Streptococcal inhibitor of complement (SIC) from S. pyogenes M1 strain AP1 (natural protein)
TLR2
  pKd: 4.89
CD14
  pKd: 5.60
